Bridges are numbered along the chain shown (N, C = ends). Where no end group is shown, it is not given here.
Assays:
[1] = biological target: human amylin receptor (hAMY1(a)) (human) (UniProt P30988); experiment: cell-based or functional assay
[2] = biological target: human calcitonin receptor (hCT(a)) (human) (UniProt P30988); experiment: cell-based or functional assay
Sequence of human calcitonin receptor (hCT(a)) (human) (P30988 25-474): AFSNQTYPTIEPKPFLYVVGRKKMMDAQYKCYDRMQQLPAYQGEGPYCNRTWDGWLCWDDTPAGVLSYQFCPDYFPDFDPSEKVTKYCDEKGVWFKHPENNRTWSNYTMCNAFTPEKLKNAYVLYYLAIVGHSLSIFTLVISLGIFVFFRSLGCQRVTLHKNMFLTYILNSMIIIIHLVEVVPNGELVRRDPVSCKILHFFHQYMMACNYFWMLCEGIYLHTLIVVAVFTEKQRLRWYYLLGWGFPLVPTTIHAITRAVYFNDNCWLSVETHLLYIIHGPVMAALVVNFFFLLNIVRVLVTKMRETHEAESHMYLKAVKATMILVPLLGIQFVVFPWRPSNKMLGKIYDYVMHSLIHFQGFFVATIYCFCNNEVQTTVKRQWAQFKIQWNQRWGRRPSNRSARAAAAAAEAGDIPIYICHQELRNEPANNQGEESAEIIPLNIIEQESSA

Sequence of human amylin receptor (hAMY1(a)) (human) (P30988 25-474, chain 1 of 2): as the sequence (P30988 25-474) above
Sequence of human amylin receptor (hAMY1(a)) (human) (O60894 27-148, chain 2 of 2, further chain): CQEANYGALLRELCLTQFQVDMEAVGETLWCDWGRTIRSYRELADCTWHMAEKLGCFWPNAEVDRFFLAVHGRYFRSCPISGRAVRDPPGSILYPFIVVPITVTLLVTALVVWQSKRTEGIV

pEC50 of cAMP production (pEC50 (-log10(EC50))) [1]	pEC50 of cAMP production (pEC50 (-log10(EC50))) [2]	Binder
9.43	8.55	KCNTATCATQRLANFLVHSSNKFGAILPSTKVGSNTY-NH2 (disulfide 2-7; not fully specified; printed as KCNTATCATQRLANFLVHSSNKFGAILPSTKVGSNTY-NH2) [exemplary mutant-hIAPP polypeptide mutant analog 4 (N22K, S28P, N31K as SEQ ID NO: 22 is printed)]
9.13	8.62	KCNTATCATQRLANFLVHSSKNFGAILSSTNVGSKTY (HELM PEPTIDE1{K.C.N.T.A.T.C.A.T.Q.R.L.A.N.F.L.V.H.S.S.K.N.F.G.A.I.L.S.S.T.N.V.G.S.K.T.Y.[am]}$PEPTIDE1,PEPTIDE1,2:R3-7:R3$$$V2.0; N-terminus assumed; SMILES CC[C@H](C)[C@H](NC(=O)[C@H](C)NC(=O)CNC(=O)[C@H](Cc1ccccc1)NC(=O)[C@H](CC(N)=O)NC(=O)[C@H](CCCCN)NC(=O)[C@H](CO)NC(=O)[C@H](CO)NC(=O)[C@H](Cc1c[nH]cn1)NC(=O)[C@@H](NC(=O)[C@H](CC(C)C)NC(=O)[C@H](Cc1ccccc1)NC(=O)[C@H](CC(N)=O)NC(=O)[C@H](C)NC(=O)[C@H](CC(C)C)NC(=O)[C@H](CCCNC(=N)N)NC(=O)[C@H](CCC(N)=O)NC(=O)[C@@H](NC(=O)[C@H](C)NC(=O)[C@@H]1CSSC[C@H](NC(=O)[C@@H](N)CCCCN)C(=O)N[C@@H](CC(N)=O)C(=O)N[C@@H]([C@@H](C)O)C(=O)N[C@@H](C)C(=O)N[C@@H]([C@@H](C)O)C(=O)N1)[C@@H](C)O)C(C)C)C(=O)N[C@@H](CC(C)C)C(=O)N[C@@H](CO)C(=O)N[C@@H](CO)C(=O)N[C@H](C(=O)N[C@@H](CC(N)=O)C(=O)N[C@H](C(=O)NCC(=O)N[C@@H](CO)C(=O)N[C@@H](CCCCN)C(=O)N[C@H](C(=O)N[C@@H](Cc1ccc(O)cc1)C(N)=O)[C@@H](C)O)C(C)C)[C@@H](C)O) [exemplary mutant-hIAPP polypeptide mutant analog 3 (N21K, N35K)]
8.47	8.3	KCNTATCATQRLANFLVHSSNKFPAPLSSTKVGSNTY (HELM PEPTIDE1{K.C.N.T.A.T.C.A.T.Q.R.L.A.N.F.L.V.H.S.S.N.K.F.P.A.P.L.S.S.T.K.V.G.S.N.T.Y.[am]}$PEPTIDE1,PEPTIDE1,2:R3-7:R3$$$V2.0; N-terminus assumed; SMILES CC(C)C[C@H](NC(=O)[C@H](CCCNC(=N)N)NC(=O)[C@H](CCC(N)=O)NC(=O)[C@@H](NC(=O)[C@H](C)NC(=O)[C@@H]1CSSC[C@H](NC(=O)[C@@H](N)CCCCN)C(=O)N[C@@H](CC(N)=O)C(=O)N[C@@H]([C@@H](C)O)C(=O)N[C@@H](C)C(=O)N[C@@H]([C@@H](C)O)C(=O)N1)[C@@H](C)O)C(=O)N[C@@H](C)C(=O)N[C@@H](CC(N)=O)C(=O)N[C@@H](Cc1ccccc1)C(=O)N[C@@H](CC(C)C)C(=O)N[C@H](C(=O)N[C@@H](Cc1c[nH]cn1)C(=O)N[C@@H](CO)C(=O)N[C@@H](CO)C(=O)N[C@@H](CC(N)=O)C(=O)N[C@@H](CCCCN)C(=O)N[C@@H](Cc1ccccc1)C(=O)N1CCC[C@H]1C(=O)N[C@@H](C)C(=O)N1CCC[C@H]1C(=O)N[C@@H](CC(C)C)C(=O)N[C@@H](CO)C(=O)N[C@@H](CO)C(=O)N[C@H](C(=O)N[C@@H](CCCCN)C(=O)N[C@H](C(=O)NCC(=O)N[C@@H](CO)C(=O)N[C@@H](CC(N)=O)C(=O)N[C@H](C(=O)N[C@@H](Cc1ccc(O)cc1)C(N)=O)[C@@H](C)O)C(C)C)[C@@H](C)O)C(C)C) [exemplary mutant-hIAPP polypeptide mutant analog 1 (N22K, G24P, I26P, N31K)]
8.75	7.97	KCNTATCATQRLANFLVHSSKNFPAPLSSTNVGSKTY (HELM PEPTIDE1{K.C.N.T.A.T.C.A.T.Q.R.L.A.N.F.L.V.H.S.S.K.N.F.P.A.P.L.S.S.T.N.V.G.S.K.T.Y.[am]}$PEPTIDE1,PEPTIDE1,2:R3-7:R3$$$V2.0; N-terminus assumed; SMILES CC(C)C[C@H](NC(=O)[C@H](CCCNC(=N)N)NC(=O)[C@H](CCC(N)=O)NC(=O)[C@@H](NC(=O)[C@H](C)NC(=O)[C@@H]1CSSC[C@H](NC(=O)[C@@H](N)CCCCN)C(=O)N[C@@H](CC(N)=O)C(=O)N[C@@H]([C@@H](C)O)C(=O)N[C@@H](C)C(=O)N[C@@H]([C@@H](C)O)C(=O)N1)[C@@H](C)O)C(=O)N[C@@H](C)C(=O)N[C@@H](CC(N)=O)C(=O)N[C@@H](Cc1ccccc1)C(=O)N[C@@H](CC(C)C)C(=O)N[C@H](C(=O)N[C@@H](Cc1c[nH]cn1)C(=O)N[C@@H](CO)C(=O)N[C@@H](CO)C(=O)N[C@@H](CCCCN)C(=O)N[C@@H](CC(N)=O)C(=O)N[C@@H](Cc1ccccc1)C(=O)N1CCC[C@H]1C(=O)N[C@@H](C)C(=O)N1CCC[C@H]1C(=O)N[C@@H](CC(C)C)C(=O)N[C@@H](CO)C(=O)N[C@@H](CO)C(=O)N[C@H](C(=O)N[C@@H](CC(N)=O)C(=O)N[C@H](C(=O)NCC(=O)N[C@@H](CO)C(=O)N[C@@H](CCCCN)C(=O)N[C@H](C(=O)N[C@@H](Cc1ccc(O)cc1)C(N)=O)[C@@H](C)O)C(C)C)[C@@H](C)O)C(C)C) [exemplary mutant-hIAPP polypeptide mutant analog 2 (N21K, G24P, I26P, N35K)]

From US20190352356A1
